B1: MAP2K2, P36507 (peptide)
chain: QPGTPTRTAV
B2: RPS6KA1, Q15418 (peptide)
chain: RRVRKLPSTTL

target: RIMS2, Q9UQ26; assay: holdup assay; set-up: key: below the threshold = too weak to quantify, mostly under pKd 3.1 to 4; conditions: plain residues with an end cap or a label only (N-terminal biotin on a linker: ttds)
Sequence (Q9UQ26 637-758): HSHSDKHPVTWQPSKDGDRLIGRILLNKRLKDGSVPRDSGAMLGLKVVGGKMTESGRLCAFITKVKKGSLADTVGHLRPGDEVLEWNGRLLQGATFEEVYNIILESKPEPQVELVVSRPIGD

Binder	pKd
B1	below the threshold
B2	below the threshold

target: T1, APBA3_2, O96018; assay: holdup assay; set-up: key: below the threshold = too weak to quantify, mostly under pKd 3.1 to 4; conditions: plain residues with an end cap or a label only (N-terminal biotin on a linker: ttds)
T1 sequence (O96018 480-570, limits assumed, looked up): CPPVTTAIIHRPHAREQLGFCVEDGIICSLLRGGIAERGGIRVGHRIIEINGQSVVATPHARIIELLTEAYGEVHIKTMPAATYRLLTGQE

Binder	pKd
B1	below the threshold
B2	below the threshold

target: T2, DVL1, O14640; assay: holdup assay; set-up: key: below the threshold = too weak to quantify, mostly under pKd 3.1 to 4; conditions: plain residues with an end cap or a label only (N-terminal biotin on a linker: ttds)
T2 sequence (O14640 246-333, limits assumed, looked up): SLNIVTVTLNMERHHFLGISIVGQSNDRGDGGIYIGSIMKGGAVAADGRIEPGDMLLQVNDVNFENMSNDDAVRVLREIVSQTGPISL

Binder	pKd
B1	below the threshold
B2	below the threshold

target: T3, PDZD4, Q76G19; assay: holdup assay; set-up: key: below the threshold = too weak to quantify, mostly under pKd 3.1 to 4; conditions: plain residues with an end cap or a label only (N-terminal biotin on a linker: ttds)
T3 sequence (Q76G19 125-224, limits assumed, looked up): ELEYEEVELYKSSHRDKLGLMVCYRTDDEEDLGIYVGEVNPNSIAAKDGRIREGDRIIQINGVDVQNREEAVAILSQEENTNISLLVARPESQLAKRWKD

Binder	pKd
B1	4.21
B2	below the threshold

target: T4, PCLO, Q9Y6V0; assay: holdup assay; set-up: key: below the threshold = too weak to quantify, mostly under pKd 3.1 to 4; conditions: plain residues with an end cap or a label only (N-terminal biotin on a linker: ttds)
T4 sequence (Q9Y6V0 4491-4600, limits assumed, looked up): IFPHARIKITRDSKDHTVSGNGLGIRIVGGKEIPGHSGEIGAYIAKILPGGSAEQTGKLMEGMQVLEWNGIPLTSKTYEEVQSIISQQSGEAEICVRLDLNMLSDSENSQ

Binder	pKd
B1	below the threshold
B2	below the threshold

target: T5, MPP5, Q8N3R9; assay: holdup assay; set-up: key: below the threshold = too weak to quantify, mostly under pKd 3.1 to 4; conditions: plain residues with an end cap or a label only (N-terminal biotin on a linker: ttds)
T5 sequence (Q8N3R9 251-346, limits assumed, looked up): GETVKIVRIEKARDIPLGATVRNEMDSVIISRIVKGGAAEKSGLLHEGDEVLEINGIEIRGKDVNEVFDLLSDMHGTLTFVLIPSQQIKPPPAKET

Binder	pKd
B1	below the threshold
B2	below the threshold

target: GRIP2_2, Q9C0E4; assay: holdup assay; set-up: key: below the threshold = too weak to quantify, mostly under pKd 3.1 to 4; conditions: plain residues with an end cap or a label only (N-terminal biotin on a linker: ttds)
Sequence (Q9C0E4 137-245): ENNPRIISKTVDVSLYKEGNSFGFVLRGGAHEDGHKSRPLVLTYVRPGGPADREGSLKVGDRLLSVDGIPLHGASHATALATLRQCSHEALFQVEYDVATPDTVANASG

Binder	pKd
B1	below the threshold
B2	below the threshold

target: MAGI3_5, Q5TCQ9; assay: holdup assay; set-up: key: below the threshold = too weak to quantify, mostly under pKd 3.1 to 4; conditions: plain residues with an end cap or a label only (N-terminal biotin on a linker: ttds)
Sequence (Q5TCQ9 847-941): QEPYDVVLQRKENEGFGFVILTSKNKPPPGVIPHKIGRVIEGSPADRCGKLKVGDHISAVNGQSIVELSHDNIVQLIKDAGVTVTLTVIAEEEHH

Binder	pKd
B1	below the threshold
B2	below the threshold

target: MAGI3_6, Q5TCQ9; assay: holdup assay; set-up: key: below the threshold = too weak to quantify, mostly under pKd 3.1 to 4; conditions: plain residues with an end cap or a label only (N-terminal biotin on a linker: ttds)
Sequence (Q5TCQ9 1014-1103): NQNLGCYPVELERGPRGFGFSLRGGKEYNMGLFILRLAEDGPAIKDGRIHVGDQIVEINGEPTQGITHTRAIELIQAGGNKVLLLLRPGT

Binder	pKd
B1	below the threshold
B2	below the threshold

target: T6, MPDZ_2, O75970; assay: holdup assay; set-up: key: below the threshold = too weak to quantify, mostly under pKd 3.1 to 4; conditions: plain residues with an end cap or a label only (N-terminal biotin on a linker: ttds)
T6 sequence (O75970 252-347, limits assumed, looked up): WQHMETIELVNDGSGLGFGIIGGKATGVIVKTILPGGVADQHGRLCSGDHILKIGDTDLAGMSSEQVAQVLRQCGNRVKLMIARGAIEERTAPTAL

Binder	pKd
B1	below the threshold
B2	below the threshold

target: T7, MPDZ_12, O75970; assay: holdup assay; set-up: key: below the threshold = too weak to quantify, mostly under pKd 3.1 to 4; conditions: plain residues with an end cap or a label only (N-terminal biotin on a linker: ttds)
T7 sequence (O75970 1857-1958, limits assumed, looked up): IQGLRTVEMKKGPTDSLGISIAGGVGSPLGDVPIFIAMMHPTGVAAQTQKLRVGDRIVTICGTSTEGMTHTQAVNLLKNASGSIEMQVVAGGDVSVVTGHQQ

Binder	pKd
B1	below the threshold
B2	below the threshold

target: T8, PDZD8, Q8NEN9; assay: holdup assay; set-up: key: below the threshold = too weak to quantify, mostly under pKd 3.1 to 4; conditions: plain residues with an end cap or a label only (N-terminal biotin on a linker: ttds)
T8 sequence (Q8NEN9 361-459, limits assumed, looked up): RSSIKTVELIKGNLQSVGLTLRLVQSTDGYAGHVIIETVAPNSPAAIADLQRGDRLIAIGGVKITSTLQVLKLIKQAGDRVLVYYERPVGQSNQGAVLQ

Binder	pKd
B1	below the threshold
B2	below the threshold

target: NHERF4_3, Q86UT5; assay: holdup assay; set-up: key: below the threshold = too weak to quantify, mostly under pKd 3.1 to 4; conditions: plain residues with an end cap or a label only (N-terminal biotin on a linker: ttds)
Sequence (Q86UT5 325-412): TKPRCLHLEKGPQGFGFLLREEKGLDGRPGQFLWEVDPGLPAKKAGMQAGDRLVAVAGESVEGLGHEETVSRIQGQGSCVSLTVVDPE

Binder	pKd
B1	below the threshold
B2	below the threshold

target: PTPN13_2, Q12923; assay: holdup assay; set-up: key: below the threshold = too weak to quantify, mostly under pKd 3.1 to 4; conditions: plain residues with an end cap or a label only (N-terminal biotin on a linker: ttds)
Sequence (Q12923 1363-1462): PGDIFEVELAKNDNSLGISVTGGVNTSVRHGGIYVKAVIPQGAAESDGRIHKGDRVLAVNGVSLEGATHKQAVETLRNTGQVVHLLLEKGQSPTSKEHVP

Binder	pKd
B1	below the threshold
B2	below the threshold

target: MAGI3_3, Q5TCQ9; assay: holdup assay; set-up: key: below the threshold = too weak to quantify, mostly under pKd 3.1 to 4; conditions: plain residues with an end cap or a label only (N-terminal biotin on a linker: ttds)
Sequence (Q5TCQ9 572-655): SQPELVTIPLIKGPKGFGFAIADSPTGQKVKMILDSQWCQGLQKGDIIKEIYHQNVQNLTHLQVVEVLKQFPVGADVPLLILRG

Binder	pKd
B1	below the threshold
B2	below the threshold

target: Inadl_7, Q8NI35; assay: holdup assay; set-up: key: below the threshold = too weak to quantify, mostly under pKd 3.1 to 4; conditions: plain residues with an end cap or a label only (N-terminal biotin on a linker: ttds)
Sequence (Q8NI35 1219-1332): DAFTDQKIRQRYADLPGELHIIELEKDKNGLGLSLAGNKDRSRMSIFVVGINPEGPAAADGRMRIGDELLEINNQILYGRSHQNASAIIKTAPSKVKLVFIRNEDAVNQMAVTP

Binder	pKd
B1	below the threshold
B2	below the threshold

target: T9, MAGI2_1, Q86UL8; assay: holdup assay; set-up: key: below the threshold = too weak to quantify, mostly under pKd 3.1 to 4; conditions: plain residues with an end cap or a label only (N-terminal biotin on a linker: ttds)
T9 sequence (Q86UL8 12-111, limits assumed, looked up): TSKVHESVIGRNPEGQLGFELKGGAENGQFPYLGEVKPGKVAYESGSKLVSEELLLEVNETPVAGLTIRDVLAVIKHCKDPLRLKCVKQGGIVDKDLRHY

Binder	pKd
B1	below the threshold
B2	below the threshold

target: TJP1_3, Q07157; assay: holdup assay; set-up: key: below the threshold = too weak to quantify, mostly under pKd 3.1 to 4; conditions: plain residues with an end cap or a label only (N-terminal biotin on a linker: ttds)
Sequence (Q07157 416-512): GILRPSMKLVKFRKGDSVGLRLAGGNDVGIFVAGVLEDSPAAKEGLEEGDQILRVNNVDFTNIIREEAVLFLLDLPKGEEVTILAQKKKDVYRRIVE

Binder	pKd
B1	below the threshold
B2	below the threshold

target: T10, SHROOM3, Q8TF72; assay: holdup assay; set-up: key: below the threshold = too weak to quantify, mostly under pKd 3.1 to 4; conditions: plain residues with an end cap or a label only (N-terminal biotin on a linker: ttds)
T10 sequence (Q8TF72 20-120, limits assumed, looked up): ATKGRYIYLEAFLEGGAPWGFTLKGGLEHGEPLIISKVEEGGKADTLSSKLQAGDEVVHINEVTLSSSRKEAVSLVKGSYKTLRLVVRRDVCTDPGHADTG

Binder	pKd
B1	below the threshold
B2	below the threshold

target: SDCBP_1, O00560; assay: holdup assay; set-up: key: below the threshold = too weak to quantify, mostly under pKd 3.1 to 4; conditions: plain residues with an end cap or a label only (N-terminal biotin on a linker: ttds)
Sequence (O00560 111-198): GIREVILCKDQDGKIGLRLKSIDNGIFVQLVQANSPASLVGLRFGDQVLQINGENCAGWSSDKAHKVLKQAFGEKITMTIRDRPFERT

Binder	pKd
B1	below the threshold
B2	below the threshold

target: PDZD9, Q8IXQ8; assay: holdup assay; set-up: key: below the threshold = too weak to quantify, mostly under pKd 3.1 to 4; conditions: plain residues with an end cap or a label only (N-terminal biotin on a linker: ttds)
Sequence (Q8IXQ8 23-120): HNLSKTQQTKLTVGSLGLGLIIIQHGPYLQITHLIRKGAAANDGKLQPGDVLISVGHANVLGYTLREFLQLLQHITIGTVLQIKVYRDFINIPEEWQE

Binder	pKd
B1	below the threshold
B2	below the threshold

target: PARD3_1, Q8TEW0; assay: holdup assay; set-up: key: below the threshold = too weak to quantify, mostly under pKd 3.1 to 4; conditions: plain residues with an end cap or a label only (N-terminal biotin on a linker: ttds)
Sequence (Q8TEW0 264-372): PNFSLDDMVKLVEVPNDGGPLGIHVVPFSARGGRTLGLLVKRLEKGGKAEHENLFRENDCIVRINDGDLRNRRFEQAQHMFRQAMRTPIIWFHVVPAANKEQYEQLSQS

Binder	pKd
B1	below the threshold
B2	below the threshold

target: T11, PTPN4, P29074; assay: holdup assay; set-up: key: below the threshold = too weak to quantify, mostly under pKd 3.1 to 4; conditions: plain residues with an end cap or a label only (N-terminal biotin on a linker: ttds)
T11 sequence (P29074 512-599, limits assumed, looked up): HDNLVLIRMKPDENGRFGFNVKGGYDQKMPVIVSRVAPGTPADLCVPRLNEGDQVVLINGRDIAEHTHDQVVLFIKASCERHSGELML

Binder	pKd
B1	below the threshold
B2	below the threshold

target: T12, SHROOM2, Q13796; assay: holdup assay; set-up: key: below the threshold = too weak to quantify, mostly under pKd 3.1 to 4; conditions: plain residues with an end cap or a label only (N-terminal biotin on a linker: ttds)
T12 sequence (Q13796 21-118, limits assumed, looked up): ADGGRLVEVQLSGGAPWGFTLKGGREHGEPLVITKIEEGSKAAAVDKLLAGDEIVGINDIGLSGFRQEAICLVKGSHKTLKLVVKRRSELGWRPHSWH

Binder	pKd
B1	below the threshold
B2	3.61

target: MAST3, O60307; assay: holdup assay; set-up: key: below the threshold = too weak to quantify, mostly under pKd 3.1 to 4; conditions: plain residues with an end cap or a label only (N-terminal biotin on a linker: ttds)
Sequence (O60307 945-1048): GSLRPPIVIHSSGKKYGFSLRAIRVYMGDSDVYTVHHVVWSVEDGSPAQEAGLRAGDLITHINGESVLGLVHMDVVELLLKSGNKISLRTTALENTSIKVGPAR

Binder	pKd
B1	below the threshold
B2	below the threshold

Reference: paper PMC9482650, “Quantitative fragmentomics allow affinity mapping of interactomes” (Nature Communications, 2022)
